# Data reported in PMC9400960.
# Biological target: PABP1-190 (RRM1/2) (human, UniProt P11940 1-190)
# Test: MST competition
# Chain of PABP1-190 (RRM1/2) (P11940 1-190): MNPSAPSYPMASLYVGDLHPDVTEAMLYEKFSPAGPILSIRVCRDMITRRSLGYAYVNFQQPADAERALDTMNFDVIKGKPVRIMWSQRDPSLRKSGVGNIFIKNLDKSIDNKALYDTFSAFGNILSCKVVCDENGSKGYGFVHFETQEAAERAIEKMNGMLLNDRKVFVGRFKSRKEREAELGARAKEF
row,Binder,binding signal
1,"AAAAAAAAAAAA (ssRNA, N6-methyl-A in middle part; positions in Figure 2/Table 1) [m6A2]",~12 fold higher Kd app than A12
2,"AAAAAAAAAAAA (XNA, 2'-O-methyl-A in middle part; positions in Figure 2/Table 1) [Am2]",~7 fold higher Kd app than A12
3,"AAAAAAAAAAAA (XNA, 2'-F-A in middle part; positions in Figure 2/Table 1) [AF2]",~4 fold higher Kd app than A12
